As a reminder, the Km is the substrate concentration at which the rate is half of its maximum. By kcat is commonly meant the number of substrate molecules converted per active site and unit of time at saturation.

The results in this text go back to article PMC5562730, “Three recombinantly expressed apple tyrosinases suggest the amino acids responsible for mono- versus diphenolase activity in plant polyphenol oxidases” (Scientific Reports, 2017).

Substrate in series [1]: NCCc1ccc(O)c(O)c1
The series can be described thus: purified protein. The format is biochemical, Malus domestica. Particulars: 50 mM Tris-HCl pH 7.0, 25 °C, 3 mM SDS as activator.

Substrate in series [2]: NCCc1ccc(O)cc1
The experiment in a line: purified protein. The format is biochemical, Malus domestica. To be noted: 50 mM Tris-HCl pH 7.0, 25 °C, 3 mM SDS as activator.

B1: MdPPO1 (Malus domestica) (protein)
chain: KPIAPPDVSKCGPADLPQGAVPTNCCPPPSTKIIDFKLPAPAKLRIRPPAHAVDQAYRDKYYKAMELMKALPDDDPRSFKQQAAVHCAYCDGAYDQVGFPELELQIHNSWLFFPFHRYYLYFFEKILGKLINDPTFALPFWNWDSPAGMPLPAIYADPKSPLYDKLRSANHQPPTLVDLDYNGTEDNVSKETTINANLKIMYRQMVSNSKNAKLFFGNPYRAGDEPDPGGGSIEGTPHAPVHLWTGDNTQPNFEDMGNFYSAGRDPIFFAHHSNVDRMWSIWKTLGGKRTDLTDSDWLDSGFLFYNENAELVRVKVRDCLETKNLGYVYQDVDIPWLSSKPTPRRAKVALSKVAKKLGVAHAAVASSSKVVAGTEFPISLGSKISTVVKRPKQKKRSKKAKEDEEEILVIEGIEFDRDVAVKFDVYVNDVDDLPSGPDKTEFAGSFVSVPHSHKHKKKMNTILRLGLTDLLEEIEAEDDDSVVVTLVPKFGAVKIGGIKIEFAS
notes: latent pro-enzyme without transit peptide, C-terminal domain kept; GST tag cut (HRV3C, pGEX-6P-1 SmaI); E. coli BL21
For the protein B1, in “purified protein [1]”, the Km came out at 480 ± 38 µM and the kcat came out at 100 ± 4.54 s⁻¹. Besides, in the series “purified protein [2]”, the Km worked out at 710 ± 36 µM and the kcat is 9.5 ± 0.43 s⁻¹.
